The source of these data is the DeepSol protein solubility set.

The nature of the data set: soluble on expression in E. coli; label from the status in PepcDB or PDB records.
In the case of “MGSDKIHHHHHHMRRLPPLNALQIFATVARHRSFTRAADALCVTQGAISRQIQSLEAHYGFALFMRHARGLTLTVEGEQLLPVVVESFARIEDISLKLTRQRTDLALKVPTCVMRWVLPRIMRFQREHPDLHVQMTTTWRHDVDFQSEPFDAAIVYGMSPGPDVAAVPLFDERLTPVCAPDLLEGRPLARVEDLACHTLLHPTRDHRDWRRWLDYAGAAGVDPDRGPSFDSLDLATSAATQGFGVALGDLTLSEEDFAARRLAMPLDIVQRTGARYYFVYPESVAQQQKIQRFSAWLDANRD”, the “soluble on expression in E. coli” value is given as “not soluble”.

Take “MGSDKIHHHHHHMSNHSSSIPELSDNGIRYYQTYNESLSLWPVRCKSFYISTRFGQTHVIASGPEDAPPLVLLHGALFSSTMWYPNIADWSSKYRTYAVDIIGDKNKSIPENVSGTRTDYANWLLDVFDNLGIEKSHMIGLSLGGLHTMNFLLRMPERVKSAAILSPAETFLPFHHDFYKYALGLTASNGVETFLNWMMNDQNVLHPIFVKQFKAGVMWQDGSRNPNPNADGFPYVFTDEELRSARVPILLLLGEHEVIYDPHSALHRASSFVPDIEAEVIKNAGHVLSMEQPTYVNERVMRFFNA”: the “soluble on expression in E. coli” value is “soluble”.

For “MKNLPISIGRIVMQGGHVNFQDQFIQPNYRAYLTDLAGRIGPLNPRKTGEVDIRGAVDKTAPLKISGSVDAFGRELNLDITASAKGIDMPTFSPYSGKYIGYAIEKGKLSVDVHYHVEHGELTAENSIFLDQLTFGEKIESPDAVSIPVNLALALLEHHHHHH”, the “soluble on expression in E. coli” value was “not soluble”.

For the sequence “ATQSPGDSRRLSIQRAIQSLVHAAQCRNANCSLPSCQKMKRVVQHTKGCKRKTNGGCPICKQLIALAAYHAKHCQENKCPVPFCLNIKQKLRQQQLQHRLQQAQMLRRRMASMQ”, the “soluble on expression in E. coli” value is recorded as “soluble”.

“MSLKHVAVYLRLSRGEDESELDNHKTRLLNRCELNNWSYELYKEIGSGSTIDDRPVMQKLLTDVEKNLYDAVLVVDLDRLSRGNGTDNDRILYSMKVSETLIVVESPYQVLDANNESDEEIILFKGFFARFEFKQINKRMREGKKLAQSRGQWVNSVTPYGYIVNKTTKKLTPSEEEAKVVIMIKDFFFEGKSTSDIAWELNKRKIKPRRATEWRSSSIANILQNEVYVGNIVYNKSVGNKKPSKSKTRVTTPYRRLPEEEWRRVYNAHQPLYSKEEFDRIKQYFECNVKSHKGSEVRTYALTGLCKTPDGKTMRVTQGKKGTDDDLYLFPKKNKHGDSSIYKGISYNVVYETLKEVILQVKDYLDSVLDQNENKDLVEELKEELMKKEDELETIQKAKNRIVQGFLIGLYDEQDSIELKVEKEKEIDEKEKEIEAIKMKIDNAKTVNNSIKKTKIERLLSDVQSAESEKEINRFYKTLIKEIIVDRTDENEAKIKVNFLEGHHHHHH”: the “soluble on expression in E. coli” value is “not soluble”.

For “MKPLSGLKVLDLSRVLAGPLCTMILADLGAEVVKVEPPWGDETRGWGPPFVEGESAYFLAVNRGKRSVALDLKRPEGQEAVRRLAQKADVLVENFKTGDLRRFGLDYESLKPLNPRLIYLSITGFGHTGPRAKEPGYDAALQGYTGIMSVTGEPEGPPMKVGVAWIDVMTGMMGALAVLAALWERERSGLGQHIDLSLFDVGLFALANLGESFLLTGKPPKRLGNAHAQIVPYGAFPAEDGWLVLAVGNDEQFARLCQVVGLPDLARRFPTNALRVEHREEVVEALSRALKARSRAHWLERFKEAGVPAAPVNDLKEAFQDPQARARGAVWTLPHPLLGALPTLANPLRFLSRTPAGPGLPPPLLGEHTREVLLEAGYTPEAVADLVQRGIAKEAPPASQRRPDRGA”, the “soluble on expression in E. coli” value is recorded as “soluble”.

In the case of “PPCDSIVVAYYFCGEPIPYETLVRGRAVTLGQFKELLTKKGSYRYYFKKVSDEFDCGVVFEEVREDEAILPVFEEKIIGKVEKVD”, the “soluble on expression in E. coli” value was “soluble”.

“MAKWGQGDPRWIVAEREDGTNVNNWHWTARDATIWSKGKLRELLVGIAMENEAGRCEISELKQVEGEASCNSRKGKLIFFYEWNIKLAWKGTVKESGAKHKGLIEIPSLSEENEINDTEVNVSKKKGDGEILKDLMRTTGTAKVREALGEYLKALKTEFTTGMILPTKAVATQELTLQRKLNENKLQASPVALGVRIPTVALHLTELFDTTVEQLYSIFTVKELVQKFSKSPAVLEAERGGKFQMFDGNISGEYVELVTNRKIIMKWRCRNWPEALGFFPRTLCNS”: the “soluble on expression in E. coli” value is “not soluble”.

With “MSLSVTDVAGRTVSFDAQPKRILLAEGRALMATSVLNKENPAKDVVAIGADLHKAAPSFESALRQARPQVSKLPMIGSIAKGDVTVENMLSFKPDAVVMTLDQKEAAEKAGFLQKMDQAKLPYVFIDFRRKPLENTTKSMATLGKIFGGKAISRAKEFNKFYQSKVDDVSRRVSRESDKPRTFLWRAAGLKDCCSTYANLNLGDVITAAGGHNLGADLLRTSAGDVTPEKIVATQPEHIIATGGSWAKDPKKPESVPHVELGYNVTDDDAQRTLAGLLKTPGFSLLKAPKDGKLHAVYHQFYDSPFNVFALEQFAAWQHPKQFKGVDLTKDFAKFHEDYLPFGYRGVFFVTLKEGHHHHHH”, the “soluble on expression in E. coli” value is given as “soluble”.

In the case of “MSNKIVTLEINLEPSDNRRLASLCGPFDDNIKHLERRLGVEINHRSDHFTIVGKPHTSAAALDILKTLYVDTAPVRGEIPDIEPEQIHLAIKESGVLEQNTESSIAHGKEVFVKTKKGVIKPRTPNQAQYLVNMVTHDISFGIGPAGTGKTYLAVAAAVDALERQEIRRILLTRPAVEAGEKLGFLPGDLSQKVDPYLRPLYDALFEMLGFERVEKLIERNVIEVAPLAYMRGRTLNDAFIILDESQNTTVEQMKMFLTRIGFNSRAVITGDVTQIDLPRGAKSGLRHAIEVLSEVDDISFNFFQADDVVRHPVVARIVNAYEKWEAQDQKERKEFEKRRREERDAKLLEAAKAELSAQVAATKE”, the “soluble on expression in E. coli” value is listed as “not soluble”.

Take “MGSDKIHHHHHHMPRKTATATKLFVLDTNVLMHDPTSLFRFEEHDVYVPIATLEELDQHKKGMTEVSRNARQASRFLDEIVRKLDSIDEGVPLAPHSHNAATGRLFLQTQAISGDIPVNLPTSKVDNQILGVVLFLSRHHTKRQVILVSKDINMRIKARALGLPAEDYFNDKVLEDTDLLYPGLRELPADFWDTHGKGMESWQANGHTYYRVKGPLVASLLPNEFVFQEGASPLYAKVLKVEGKHAEMVTIRDFGHHKNNVWGITARNREQNFALNVLMDPEIDFVSLLGQAGTGKTLLTLAAGLAQVLDKKIYSEIIMTRVTVPVGEDIGFLPGTEEEKMTPWMGALEDNLDVLNKSDDEGGDWGRAATQDLIRSRIKVKSLNFMRGRTFLNKFLIIDEAQNLTPKQMKTLITRAGPGTKVVCLGNIAQIDTPYLTEGSSGLTYVVDHFKGWPHNGHVTLQRGERSRLADYAAEVL”: the “soluble on expression in E. coli” value is recorded as “not soluble”.

Consider “MTKRLFLPEWAPQEAVQLTWPHDRTDWAYMLDEVETCFVRIATAILRHERLIVVCPDRKRVFGLLPPELHHRLYCFELPSNDTWARDHGGISLLADGRPMIADFAFNGWGMKFAAHHDNLITRRLHALGLFAEGVTLDNRLAFVLEGGALETDGEGTLLTTDSCLFEPNRNAGLSRTAIIDTLKESLGVSRVLSLRHGALAGDDTDGHIDTLARFVDTRTIVYVRSEDPSDEHYSDLTAMEQELKELRRPDGQPYRLVPLPMAEALYDGADRLPATYANFLIINGAVLVPTYDSHLDAVALSVMQGLFPDREVIGIDCRPLVKQHGSLHCVTMQYPQGFIRLEHHHHHH”, for which the “soluble on expression in E. coli” value is “soluble”.

As to “MGSDKIHHHHHHMTGLLSKHDFRVALQEAIAGKASAKAAFSQAWMDGTLQRHHFARWAENHYHYVGPFADYLGYIYNNARDEQDGVKDLLLQSMYEFRHLQEGEAMVSHTDLLIRFAQACGTTRERVESPQACNPITRGMQAWCYATAIRESPVVATAALLVGLASQIPQIYARQIVPLRDPRVYGFSEHEVAFFALRITSDGAHAERGYRIVLDGATTPALQQRCLQFVRWGAEMRYAYAQAIYDQYVAPDLGARRVD”, the “soluble on expression in E. coli” value is listed as “not soluble”.

On to “MILLFGGTTEGRQAAALCDRLGLPFIYSTKTRVEPFATACGEFRHGALDEAALSELVSSSGVRLVIDAAHPFAARLHRSLFEVCQHLAVRLIRFDRPSVDVPDFEGLHSVADFTEALALLDRLNPAKLLALTGVQSIAPLRPWWEQHDMLLRILPTQASMELARREGIPEAQLLPMNPDSSDEALEKLVRKHGVDCLLAKESGESGFFSSKLRVAERCAIPLIVIRRPPAPAYDVVATSVEELEALLPD”, for which the “soluble on expression in E. coli” value was “soluble”.

“MSLIEELFDQMSKGNLLLIDMTYDMFNGMQTYIGDPPFKHEYFRKGNKYGEVTLSTVYMGLHSGTHIDLPLHFVPNGESVEKFNIIQFIGYGNVLDLSYKKLGEPISSNDLKKFDDRIKENYVVMLYTGFSATRGKEDFLYNWPYLDSNGADYLVSKKIRAVGIESMSIAGWAGKEYPPRTNWDEVVYVHHKLLSNDIIILESVNNMKKVLEECKNGEALFFYAPLKIVGAEGGPTRLFAICEKREGHHHHHH”: the “soluble on expression in E. coli” value is “not soluble”.

In the case of “GHMSAHVQQDKYETNVSYKKLNQLAPYFKGFDGSFVLYNEREQAYSIYNEPESKQRYSPNSTYKIYLALMAFDQNLLSLNHTEQQWDKHQYPFKEWNQDQNLNSSMKYSVNWYYENLNKHLRQDEVKSYLDLIEYGNEEISGNENYWNESSLKISAIEQVNLLKNMKQHNMHFDNKAIEKVENSMTLKQKDTYKYVGKTGTGIVNHKEANGWFVGYVETKDNTYYFATHLKGEDNANGEKAQQISERILKEMELI”, the “soluble on expression in E. coli” value is on record as “soluble”.

In the case of “MAYKYDRDLEFLKQLESSDLLDLFEVLVFGKDGEKRHNEKLTSSIEYKRHGDDYAKYAERIAEELQYYGSNSFASFIKGEGVLYKEILCDVCDKLKVNYNKKTETTLIEQNMLSKILERSLEEMDDEEVKEMCDELSIKNTDNLNRQALSAATLTLFKMGGFKSYQLAVIVANAVAKTILGRGLSLAGNQVLTRTLSFLTGPVGWIITGVWTAIDIAGPAYRVTIPACIVVATLRLKTQQANGDKKSLQIESI”, the “soluble on expression in E. coli” value is “not soluble”.

In the case of “MGSDKIHHHHHHMDKATTPPEFERRRARAAQYLRMSTERQIYSIDNQRDAIRNYAEVMGYDIVATYEDPGRSGLSILGRPGLKRLIEDIESRRADFETVVVYDVSRWGRFQNTDESASYEYRCQRAGVRIEFCAELFVNDGSIGSDVLKAIKRSMAAEYSRMLSNRVFAGQSRIVKLGFSGGGPAGYGLRRLLVDGSGNPKAILHRDQRKGLASDRVVLVPGPENEVSTVRWIFNQFVKKGKTAVEIASALNARGLVTEFGRPWTGACVGTILASEKYVGNIVWNRISHRLLQNRLRNPPSAFVRADNVIEPLVTRALFDRAQAIRRARTYLRPDEELLADLTKLLKERGRLSSPIIDAAPGCHSASIYAHRFGSMNAAYQLIGYDGSANYRKLDIRRRLIQIRQQTIENLMSDIEGVGGSALYDPQTKIMRVNDEFSVAIWTAQYRMNVTGFPRWPFWKRGLIGPEVTILIRMESDNQTVRDFLIAPAHEAQSALHMLKADNGVRLDAFLFASLDPVVEMARREPMPANI”, the “soluble on expression in E. coli” value is recorded as “not soluble”.

On to “MGHHHHHHMRSYEKSKTAFKEAQKLMPGGVNSPVRAFKSVDMDPIFMERGKGSKIFDIDGNEYIDYVLSWGPLILGHTNDRVVESLKKVAEYGTSFGAPTEVENELAKLVIDRVPSVEIVRMVSSGTEATMSALRLARGYTGRNKILKFEGCYHGHGDSLLIKAGSGVATLGLPDSPGVPEGIAKNTITVPYNDLESVKLAFQQFGEDIAGVIVEPVAGNMGVVPPQEGFLQGLRDITEQYGSLLIFDEVMTGFRVDYNCAQGYFGVTPDLTCLGKVIGGGLPVGAYGGKAEIMEQIAPSGPIYQAGTLSGNPLAMTAGLETLKQLTPDSYKNFIKKGDRLEEGISKAAEAHGIPHTFNRAGSMIGFFFTNEPVINYETAKASDLKLFASYYKGMANEGVFLPPSQFEGLFLSTAHTDEDIENTIQAAEKVFAEISRR”, for which the “soluble on expression in E. coli” value is given as “soluble”.
